# Reference: patent publication US10568949B2, “Method of eliciting an anti-tumor immune response with controlled delivery of TLR agonists in porous polymerlc devices” (President and Fellows of Harvard College, priority 2008, dated 2020)
# Values joined by “and” are separate entries in the source; they are usually repeats but may differ in a detail not shown here. Equal entries are not always repeated.
# B1: granulocyte macrophage colony stimulating factor (protein, UniProt P01587 18-141, looked up)
# Granulocyte-macrophage …: APTRSPITVTRPWKHVEAIKEALNLLDDMPVTLNEEVEVVSNEFSFKKLTCVQTRLKIFEQGLRGNFTKLKGALNMTASYYQTYCPPTPETDCETQVTTYADFIDSLKTFLTDIPFECKKPGQK
# notes: cytokine encapsulated in and released from PLG matrices to recruit DCs
# Assays:
# T cells = test: T cell infiltration at PLG vaccine site (flow cytometry); type: in vivo, C57BL/6J mice; conditions: with tumor lysate and GM-CSF, day 12
# Method: Blank PLG matrices and matrices containing 3000 ng of GM-CSF alone or in combination with either 1, 10, 50, or 100 μg of CpG-ODN (studies were also performed with tumor lysates copresented with either 3000 ng of GM-CSF or 100 μg of CpG-ODN alone or in combination) were implanted into subcutaneous pockets on the back of 7- to 9-week-old male C57BL/6J mice. For histological examination, scaffolds were excised and fixed in Z-fix solution (Anatech), embedded in paraffin, and stained with hematoxylin and eosin (H&E). To analyze DC recruitment, scaffolds were excised at various time points and digested the ingrown tissue into single-cell suspensions with a collagenase solution (250 U/ml; Worthington) that was agitated at 37° C. for 45 min. The cell suspensions were then poured through a 40-μm cell strainer to isolate cells from scaffold particles, and the cells were pelleted and washed with cold PBS and counted with a Z2 coulter counter (Beckman Coulter). […] To assess T cell infiltration, PE-Cy7-conjugated CD3 stains were performed in conjunction with APC-conjugated CD8a (CD8 T cells), FITC-conjugated CD4 (CD4 T cells), and PE-conjugated FoxP3 (Treg) and analyzed with flow cytometry. Cells were gated according to positive FITC, APC, and PE with isotype controls, and the percentage of cells staining positive for each surface antigen was recorded.
# B16-F10 melanoma cells = test: Prophylactic vaccination, B16-F10 melanoma tumor challenge; conditions: for mouse survival: antigen matrices, CpG and GM-CSF together versus GM-CSF alone
# Method: PLG scaffolds with melanoma tumor lysates and various dosages of GM-CSF and/or 10 μg PEI-CpG-ODN condensates were implanted subcutaneously into the lower left flank of C57BL/6J mice. Animals were challenged 14 days later with a subcutaneous injection of 10^5 B16-F10 melanoma cells (ATCC, Manassas, N.J.) in the back of the neck. Animals were monitored for the onset of tumor growth (approximately 1 mm^3) and sacrificed for humane reasons when tumors grew to 20-25 mm (longest diameter).
# PLG scaffolds with melanoma tumor lysates and various dosages of GM-CSF and/or various quantities of PEI-CpG-ODN condensates were implanted subcutaneously into the lower left flank of C57BL/6J mice. For prophylactic vaccinations, animals were challenged 14 days later with a subcutaneous injection of 10^5 B16-F10 melanoma cells [American Type Culture Collection (ATCC)] in the back of the neck. Animals were monitored for the onset of tumor growth (˜1 mm^3) and killed for humane reasons when tumors grew to 20 to 25 mm (longest diameter).
# B16-F10 tumors = test: Example 7: tumor infiltrating leukocyte (TIL) characterization; design: species or system C57BL/6J mice; conditions: mouse, in vivo
# Method: On the indicated days, B16-F10 tumors were removed from mice, and digested in 1 mg/mL collagenase II (250 U/ml) (Worthington, Lakewood, N.J.) and 0.1 mg/mL DNase for 1 hour at 37° C. Dissociated cells were filtered through a 40-μm filter, and directly stained with antibodies for phenotype characterization by fluorescence-activated cell sorting (FACS) analysis. APC-anti-CD8 and PE-Cy7-anti CD3 were used to identify T cells isolated from the B16F10 tumors. These TILs were also costained with FITC-anti-IFNγ, and PE-anti-CD107a. All antibodies were obtained from eBioscience, San Diego, Calif.
# [1] = In vitro release / retention of GM-CSF, cytokines and TLR agonists from PLG scaffolds; type: physicochemical
# Method: To determine the incorporation efficiency of CpG-ODN incorporation, PLG scaffolds were prepared with 50 ug of CpG-ODN and digested in 1 ml of chloroform (Sigma Aldrich, and washed with 2 mls of aqueous buffer. The aqueous phase was isolated and the amount of CpG-ODN incorporated was determined by absorbance readings (260/280 and 260/230 ratios calculated at 0.2 mm pathlength) using a Nanodrop instrument, ND1000 (Nanodrop technologies, Wilmington, Del.). Similarly, to determine CpG-ODN release kinetics CpG-ODN loaded scaffolds were placed in 1 ml of Phosphate Buffer Solution (PBS) in an incubator (37° C.). At various timepoints, the PBS release media was collected and replaced with fresh media. The total amount of CpG-ODN incorporated into PLG scaffolds and released into PBS over time was analyzed and recorded.
# host DCs = test: In vivo DC emigration from FITC painted scaffolds to inguinal lymph nodes; design: species or system C57BL/6J mice; conditions: mouse
# Method: Blank scaffolds and scaffolds containing GM-CSF with or without 10 μg PEI-ODN control (5′-tcc atg agc ttc ctg agc tt-3′) (SEQ ID NO: 6) or 10 μg PEI-CpG-ODN condensate loaded scaffolds were implanted into subcutaneous pockets on the back of 7-9 week old male C57BL/6J mice. For histological examination scaffolds were excised and fixed in Z-fix solution, embedded in paraffin, and stained with hematoxylin and eosin. To analyze DC recruitment, scaffolds were excised and the ingrown tissue was digested into single cell suspensions using a collagenase solution (Worthingtion, 250 U/ml) that was agitated at 37° C. for 45 minutes. The cell suspensions were then poured through a 40 μm cell strainer to isolate cells from scaffold particles and the cells were pelleted and washed with cold PBS and counted using a Z2 coulter counter (Beckman Coulter). The resultant cell populations were then stained with primary antibodies (BD Pharmingen, San Diego, Calif.) conjugated to fluorescent markers to allow for analysis by flow cytometry. […] Cells were gated according to positive FITC, APC and PE using isotype controls, and the percentage of cells staining positive for each surface antigen was recorded. […]
# [2] = system: bone marrow derived dendritic cells; test: Example 8: transwell chemotaxis and chemokinesis of bone marrow derived DCs; type: cell-based, C57BL/6 mice; conditions: 12 h
# Method: Primary bone-marrow-derived dendritic cells (BMDCs) were flushed from the femurs of C57BL/6 mice and cultured in 100-mm bacteriological petri dishes (Falcon number 1029/Becton Dickinson). Cell culture medium RPMI-1640 (R10) (Sigma) was supplemented with 1% Penicillin-Streptomycin (Invitrogen), 2 mM 1-Glutamine (Invitrogen), 50 μM 2-mercaptoethanol (Sigma) and 10% heat-inactivated fetal bovine serum (FBS, Invitrogen). At day 0, bone marrow leukocytes were seeded at 2×10^6 cells per 100-mm dish in 10 ml R10 medium containing 20 ng/nil granulocyte-macrophage colony-stimulating factor (GM-CSF) (Peprotech). At day 3, another 10 ml R10 medium containing 20 ng/mL GM-CSF was added. to the plates. At days 6 and 8, half of the culture supernatant was collected and centrifuged, the cell pellet was resuspended in 10 ml fresh R10 containing 20 ng/mL GM-CSF, and placed back into the original plate. The non-adherent cell population in the culture supernatant was used between days 8 and 12 for all the experiments.
# Transwell migration studies were performed by plating bone marrow derived dendritic cells in the top well of 6.5 mm transwell dishes (Costar, Cambridge, Mass.) with a pore size of 5 μm. The chemotactic effects of GM-CSF, FL (Flt3), and CCL20 on the migration of BMDCs was assessed by placing 500 ng/ml of recombinant murine GM-CSF, FL or CCL20 (Peprotech, Rocky Hill, N.J.) in the bottom wells and 3×10^5 DCs in the top wells. For chemokinesis studies, the concentration of cytokine in each compartment was equal at 500 ng/ml and 3×10^5 DCs were added to the top wells. The number of cells that migrated from the top well to the bottom well through the porous membrane was counted at the end of 12 h to quantify migration. Cells that had migrated to the bottom well were collected by treatment with 0.25% trypsin-0.03% ethylenediaminetetraacetic acid (EDTA, Invitrogen) and counted with a Z2 coulter counter (Beckman Coulter, Inc).
# [3] = optimal GM-CSF exposure (400 ng) with tumor antigen
molecule,measurement,setting,value
CpG-ODN 1826,ratio of CD8 CTLs to FoxP3 Treg cells at vaccine site (factor),T cells,~25
same,mouse survival,B16-F10 melanoma cells,90%
same,survival rate,"B16-F10 melanoma cells; lysate, GM-CSF and 10 μg CpG-ODN",50% and 45%
same,survival rate,"B16-F10 melanoma cells; lysate, GM-CSF and 10 μg CpG-ODN, listed as CpG",50%
same,survival rate,"B16-F10 melanoma cells; lysate, GM-CSF and 50 μg CpG-ODN",60%
same,survival rate,"B16-F10 melanoma cells; lysate, GM-CSF and 100 μg CpG-ODN",90%
same,vaccinated mice surviving B16-F10 challenge,"B16-F10 melanoma cells; tumor lysates with CpG-ODN (1, 10, 50 or 100), no GM-CSF",10 to 30% and 20% and 10-30%
same,"increase in IFNγ(+), CD107a(+) TILs in comparison to controls",B16-F10 tumors,approximately 6.1 fold
same,retained in the PLG matrices,[1]; over 25 days,> 80%
same,increase in number of DCs recruited to matrices and subsequently dispersed to the lymph nodes,host DCs,6 fold
B1,ratio of CD8 CTLs to FoxP3 Treg cells at vaccine site (factor),T cells,almost even ratio
same,"DC chemotaxis, migration higher than control condition",[2]; 500 ng/ml in bottom wells,approximately 50%
same,"DC chemokinesis, increase in number of migrated cells",[2]; homogenous cytokine 500 ng/ml,50%
same,animals cured / with protective anti-tumor immunity,"B16-F10 melanoma cells; GM-CSF with antigen, optimal GM-CSF dose",23%
same,mouse survival,B16-F10 melanoma cells,20%
same,animal survival,"B16-F10 melanoma cells; lysate, GM-CSF, CpG dose 0 μg",23%
same,delay of tumor formation,"B16-F10 melanoma cells; optimal GM-CSF dose with antigen, in 50% of the animals",approximately 40 days
same,increase in average time before tumor formation compared to antigen alone,B16-F10 melanoma cells; [3],3 fold
same,increase in average time before tumor formation over non-optimal GM-CSF exposure,B16-F10 melanoma cells; [3],~2 fold
same,incorporated cytokine released from scaffolds,"[1]; by day 4, in vitro",approximately 43%
same,GM-CSF protein released from PLG matrices,"[1]; by day 10, in vitro",approximately 60%
same,daily release of protein,[1]; over the next 23 days after day 4,approximately 0.9%
same,bioactive GM-CSF load released from PLG matrices,[1]; within the first 5 days,approximately 60%
